# IntAct's records for PubMed 22579248
# B1: Protein kinase C iota type (Mus musculus), Q62074 (parent)
# chain: MPTQRDSSTMSHTVACGGGGDHSHQVRVKAYYRGDIMITHFEPSISFEGLCSEVRDMCSFDNEQPFTMKWIDEEGDPCTVSSQLELEEAFRLYELNKDSELLIHVFPCVPERPGMPCPGEDKSIYRRGARRWRKLYCANGHTFQAKRFNRRAHCAICTDRIWGLGRQGYKCINCKLLVHKKCHKLVTIECGRHSLPPEPMMPMDQTMHPDHTQTVIPYNPSSHESLDQVGEEKEAMNTRESGKASSSLGLQDFDLLRVIGRGSYAKVLLVRLKKTDRIYAMKVVKKELVNDDEDIDWVQTEKHVFEQASNHPFLVGLHSCFQTESRLFFVIEYVNGGDLMFHMQRQRKLPEEHARFYSAEISLALNYLHERGIIYRDLKLDNVLLDSEGHIKLTDYGMCKEGLRPGDTTSTFCGTPNYIAPEILRGEDYGFSVDWWALGVLMFEMMAGRSPFDIVGSSDNPDQNTEDYLFQVILEKQIRIPRSLSVKAASVLKSFLNKDPKERLGCHPQTGFADIQGHPFFRNVDWDMMEQKQVVPPFKPNISGEFGLDNFDSQFTNEPVQLTPDDDDIVRKIDQSEFEGFEYINPLLMSAEECV
# B2: Partitioning defective 3 homolog (Homo sapiens), Q8TEW0 (parent)
# chain: MKVTVCFGRTRVVVPCGDGHMKVFSLIQQAVTRYRKAIAKDPNYWIQVHRLEHGDGGILDLDDILCDVADDKDRLVAVFDEQDPHHGGDGTSASSTGTQSPEIFGSELGTNNVSAFQPYQATSEIEVTPSVLRANMPLHVRRSSDPALIGLSTSVSDSNFSSEEPSRKNPTRWSTTAGFLKQNTAGSPKTCDRKKDENYRSLPRDTSNWSNQFQRDNARSSLSASHPMVGKWLEKQEQDEDGTEEDNSRVEPVGHADTGLEHIPNFSLDDMVKLVEVPNDGGPLGIHVVPFSARGGRTLGLLVKRLEKGGKAEHENLFRENDCIVRINDGDLRNRRFEQAQHMFRQAMRTPIIWFHVVPAANKEQYEQLSQSEKNNYYSSRFSPDSQYIDNRSVNSAGLHTVQRAPRLNHPPEQIDSHSRLPHSAHPSGKPPSAPASAPQNVFSTTVSSGYNTKKIGKRLNIQLKKGTEGLGFSITSRDVTIGGSAPIYVKNILPRGAAIQDGRLKAGDRLIEVNGVDLVGKSQEEVVSLLRSTKMEGTVSLLVFRQEDAFHPRELNAEPSQMQIPKETKAEDEDIVLTPDGTREFLTFEVPLNDSGSAGLGVSVKGNRSKENHADLGIFVKSIINGGAASKDGRLRVNDQLIAVNGESLLGKTNQDAMETLRRSMSTEGNKRGMIQLIVARRISKCNELKSPGSPPGPELPIETALDDRERRISHSLYSGIEGLDESPSRNAALSRIMGESGKYQLSPTVNMPQDDTVIIEDDRLPVLPPHLSDQSSSSSHDDVGFVTADAGTWAKAAISDSADCSLSPDVDPVLAFQREGFGRQSMSEKRTKQFSDASQLDFVKTRKSKSMDLGIADETKLNTVDDQKAGSPSRDVGPSLGLKKSSSLESLQTAVAEVTLNGDIPFHRPRPRIIRGRGCNESFRAAIDKSYDKPAVDDDDEGMETLEEDTEESSRSGRESVSTASDQPSHSLERQMNGNQEKGDKTDRKKDKTGKEKKKDRDKEKDKMKAKKGMLKGLGDMFRFGKHRKDDKIEKTGKIKIQESFTSEEERIRMKQEQERIQAKTREFRERQARERDYAEIQDFHRTFGCDDELMYGGVSSYEGSMALNARPQSPREGHMMDALYAQVKKPRNSKPSPVDSNRSTPSNHDRIQRLRQEFQQAKQDEDVEDRRRTYSFEQPWPNARPATQSGRHSVSVEVQMQRQRQEERESSQQAQRQYSSLPRQSRKNASSVSQDSWEQNYSPGEGFQSAKENPRYSSYQGSRNGYLGGHGFNARVMLETQELLRQEQRRKEQQMKKQPPSEGPSNYDSYKKVQDPSYAPPKGPFRQDVPPSPSQVARLNRLQTPEKGRPFYS
# partner: B1 chain
# Variants of: B1
# Conditions: with pard3_human PARD3, Q8TEW0
row,effect of a mutation on the interaction,Variant
1,increasing interaction strength,MPTQRDSSTMSHTVACGGGGDHSHQVRVKAYYRGDIMITHFEPSISFEGLCSEVRDMCSFDNEQPFTMKWIDEEGDPCTVSSQLELEEAFRLYELNKDSELLIHVFPCVPERPGMPCPGEDKSIAAAGARRWRKLYCANGHTFQAKRFNRRAHCAICTDRIWGLGRQGYKCINCKLLVHKKCHKLVTIECGRHSLPPEPMMPMDQTMHPDHTQTVIPYNPSSHESLDQVGEEKEAMNTRESGKASSSLGLQDFDLLRVIGRGSYAKVLLVRLKKTDRIYAMKVVKKELVNDDEDIDWVQTEKHVFEQASNHPFLVGLHSCFQTESRLFFVIEYVNGGDLMFHMQRQRKLPEEHARFYSAEISLALNYLHERGIIYRDLKLDNVLLDSEGHIKLTDYGMCKEGLRPGDTTSTFCGTPNYIAPEILRGEDYGFSVDWWALGVLMFEMMAGRSPFDIVGSSDNPDQNTEDYLFQVILEKQIRIPRSLSVKAASVLKSFLNKDPKERLGCHPQTGFADIQGHPFFRNVDWDMMEQKQVVPPFKPNISGEFGLDNFDSQFTNEPVQLTPDDDDIVRKIDQSEFEGFEYINPLLMSAEECV [Y125A;R126A;R127A]

# Variants of: B1
# Conditions: with pard3_human PARD3, Q8TEW0
# Remark: another data set of the same source
row,effect of a mutation on the interaction,Variant
1,decreasing interaction strength,MPTQRDSSTMSHTVACGGGGDHSHQVRVKAYYRGDIMITHFEPSISFEGLCSEVRDMCSFDNEQPFTMKWIDEEGDPCTVSSQLELEEAFRLYELNKDSELLIHVFPCVPERPGMPCPGEDKSIYRRGARRWRKLYCANGHTFQAKRFNRRAHCAICTDRIWGLGRQGYKCINCKLLVHKKCHKLVTIECGRHSLPPEPMMPMDQTMHPDHTQTVIPYNPSSHESLDQVGEEKEAMNTRESGKASSSLGLQDFDLLRVIGRGSYAKVLLVRLKKTDRIYAMKVVKKELVNDDEDIDWVQTEKHVFEQASNHPFLVGLHSCFQTESRLFFVIEYVNGGDLMFHMQRQRKLPEEHARFYSAEISLALNYLHERGIIYRDLKLDNVLLDSEGHIKLTDYGMCKEGLRPGDTTSTFCGTPDYIAPEILRGEDYGFSVDWWALGVLMFEMMAGRSPFDIVGSSDNPDQNTEDYLFQVILEKQIRIPRSLSVKAASVLKSFLNKDPKERLGCHPQTGFADIQGHPFFRNVDWDMMEQKQVVPPFKPNISGEFGLDNFDSQFTNEPVQLTPDDDDIVRKIDQSEFEGFEYINPLLMSAEECV [N417D]
2,decreasing interaction strength,MPTQRDSSTMSHTVACGGGGDHSHQVRVKAYYRGDIMITHFEPSISFEGLCSEVRDMCSFDNEQPFTMKWIDEEGDPCTVSSQLELEEAFRLYELNKDSELLIHVFPCVPERPGMPCPGEDKSIYRRGARRWRKLYCANGHTFQAKRFNRRAHCAICTDRIWGLGRQGYKCINCKLLVHKKCHKLVTIECGRHSLPPEPMMPMDQTMHPDHTQTVIPYNPSSHESLDQVGEEKEAMNTRESGKASSSLGLQDFDLLRVIGRGSYAKVLLVRLKKTDRIYAMKVVKKELVNKLQKIDWVQTEKHVFEQASNHPFLVGLHSCFQTESRLFFVIEYVNGGDLMFHMQRQRKLPEEHARFYSAEISLALNYLHERGIIYRDLKLDNVLLDSEGHIKLTDYGMCKEGLRPGDTTSTFCGTPNYIAPEILRGEDYGFSVDWWALGVLMFEMMAGRSPFDIVGSSDNPDQNTEDYLFQVILEKQIRIPRSLSVKAASVLKSFLNKDPKERLGCHPQTGFADIQGHPFFRNVDWDMMEQKQVVPPFKPNISGEFGLDNFDSQFTNEPVQLTPDDDDIVRKIDQSEFEGFEYINPLLMSAEECV [D291K;D292L;E293Q;D294K]

# Variants of: B2
# Conditions: with kpci_mouse Prkci
row,Variant,effect of a mutation on the interaction
1,S827E;S829E,disrupting interaction strength
2,F818A,disrupting interaction strength
3,R820A,disrupting interaction strength
4,S827A,decreasing interaction strength
5,F823K,decreasing interaction strength
6,F823A,disrupting interaction strength
7,R832A,disrupting interaction strength
8,K831A,disrupting interaction strength

# Now from value to variant:
row,effect of a mutation on the interaction,Variant
1,disrupting interaction strength,S827E
2,disrupting interaction strength,R825A
3,disrupting interaction strength,S829E
4,disrupting interaction strength,S827A;S829A
